Assay [1] addresses T1, FOLR3, commercial purified protein (R&D Systems Cat. No. 5319-FR) (human, UniProt P41439 23-245, limits assumed).
T1 construct: Coated on the ELISA plate; also called folate receptor gamma (FOLR3)
Description: ELISA on coated FOLR3 protein. Here is the method:
FOLR3 binding: ELISA 96-well plate was coated with commercial purified FOLR3 protein (R&D Systems, Inc., Minneapolis, MN; Cat. No. 5319-FR) for 1 hr at 37° C. The plate was blocked with 1% milk in PBS pH 7.4 for 1 hr at RT. Following blocking, primary antibodies were added at 7 nM for 1 hr at RT. […] Plates were developed using tetramethylbenzidine (TMB) and HCl was used to stop reaction. Absorbance was read at 450 nm using a Synergy™ H1 microplate reader (BioTek Instruments, Winooski, VT).

Assay [2] addresses T2, human FRα on cells (human, UniProt P15328 25-234).
T2 construct: Transiently expressed on HEK293-6e, CHO-S or HEK293 microarray cells, or endogenous on JEG-3, HEC-1-A, IGROV-1, OVCAR-3, H2110, KB-HeLa and T-47D cells; also called human folate receptor alpha; FOLR1
Description: apparent Kd, flow cytometry on JEG-3 cells (endogenous FRα), 24 h at 4°C. Here is the method: Briefly, cells were seeded at 50,000 cells/well in V-bottom 96-well plates and treated with antibody for 24 hours at 4° C. to prevent internalization. […] Following incubation and washing, fluorescence was detected by flow cytometry on a BD LSRFortessa™ Cell Analyzer (BD Biosciences, Franklin Lake, NJ) with 1,000 minimum events collected per well. AF647/APC-A GeoMean (fluorescence signal geometric mean, proportional to anti-Human AF647 binding) in live cell population was plotted using GraphPad Prism Version 9 (GraphPad Software, San Diego, CA).

Assay [3] addresses T2, human FRα on cells. Put plainly: apparent Kd, flow cytometry, CHO-S cells transiently expressing human FRα, 24 h at 4°C. Here is the method:
(§1) Briefly, CHO-S cells were transfected for −24 hours to transiently express human or cynomolgus monkey FRα, 1 ug DNA per 1 million cells. Following transfection, cells were seeded at 50,000 cells/well in V-bottom 96-well plates and treated with antibody for 24 hours at 4° C. to prevent internalization. […] Following incubation and washing, fluorescence was detected by flow cytometry on a BD LSRFortessa™ Cell Analyzer (BD Biosciences, Franklin Lake, NJ).

The target in assay [4] is T2, human FRα on cells. Description: apparent Kd, flow cytometry, CHO-S cells transiently expressing human FRα (same experiment as Table 15.1, more digits). Here is the method:
as §1

Assay [5] addresses T3, recombinant His-tagged human FRα (ACROBiosystems) (human, UniProt P15328 25-233).
T3 construct: also called hFRα; hFRα antigen; not shown: His tag
Description: BLI (Octet RED96): antibody on anti-human IgG Fc capture biosensor, His-tagged hFRα as analyte, 1:1 global fit, mean of n=2. The essentials:
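Run at 30° C with 1000 rpm shaking in kinetics buffer (PBS pH 7.4, 0.1% BSA, 0.02% Tween 20, 0.05% sodium azide) plus 0.06% Tween 20, sometimes 1% BSA. Reference-subtracted curves globally fitted to a 1:1 model, giving kon, koff and KD.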

Assay [6] deals with T3, recombinant His-tagged human FRα …. Description: SPR (Biacore T200): hFRα amine-coupled to CM5 chip at high antigen density, bivalent FSA injected, 1:1 Langmuir fit, mean of n=2. Here is the method: (§2) CM5 Series S sensor chip, Biacore™ amine coupling kit (NHS, EDC and 1 M ethanolamine), and 10 mM sodium acetate buffers were purchased from GE Healthcare Life Science (Mississauga, ON, Canada). PBS running buffer with 0.05% Tween20 (PBST) was purchased from Teknova Inc. (Hollister, CA). Recombinant human FRα was purchased from ACRObiosystems (Newark, DE).
(§3) Screening of the variants for binding to hFRα antigen was conducted in two steps: capture of hFRα onto surface, followed by injection of three to five concentrations of variant. The hFRα surface was prepared on a CM5 Series S sensor chip by standard amine coupling methods as described by the manufacturer (GE Healthcare Life Science, Mississauga, ON, Canada). The immobilization of the hFRα was performed using Biacore™ T200 immobilization wizard with an amine coupling method aiming for resonance units (RUs) ranging from 5 to 200 RUs. Using multi-cycle kinetics, three to five concentrations of a two-fold dilution series of samples starting at 300 nM with a blank buffer control were injected at 50 uL/min for 180s with a 600s dissociation phase, resulting in a set of sensorgrams with a buffer blank reference. The hFRα surface was regenerated to prepare for the next injection cycle by one pulse of 10 mM glycine/HCl pH 1.5 for 30s at 30 uL/min. Blank-subtracted sensorgrams were analyzed using Biacore™ T200 Evaluation Software v3.0. The blank-subtracted sensorgrams were then fit to the 1:1 Langmuir binding model.

Assay [7] shares this target. Put plainly: SPR (Biacore T200): hFRα amine-coupled to CM5 chip at medium-low antigen density, bivalent FSA injected, 1:1 Langmuir fit, mean of n=2. Here is the method:
as §2, §3

The target is the same in assay [8]. Put plainly: BLI (Octet RED96): antibody loaded on anti-human IgG Fc capture biosensors, His-tagged hFRα in solution. Six traces with fit lines plateau between about 0.17 and 0.5 nm during 0-400 s association and decay almost to baseline by 900 s. The legend prints the same globally fitted KD for all six traces (single run; the text prints only the mean of n=2). Here is the method: The assay buffer used was KB buffer (kinetics buffer, composed of PBS pH 7.4, 0.1% BSA, 0.02% Tween 20, 0.05% sodium azide) supplemented with 0.06% Tween 20 and in some instances also with 1% BSA. The experiment was conducted at 30° C. with a shake speed of 1000 rpm.
Data analysis was performed using Data Analysis Software 9.0 (ForteBio, Fremont CA). The reference-subtracted binding curves were globally fitted to the 1:1 interaction model to generate the binding kinetic parameters kₒₙ, koff, and the dissociation constant KD.

T2 sequence (P15328 25-234 limits assumed): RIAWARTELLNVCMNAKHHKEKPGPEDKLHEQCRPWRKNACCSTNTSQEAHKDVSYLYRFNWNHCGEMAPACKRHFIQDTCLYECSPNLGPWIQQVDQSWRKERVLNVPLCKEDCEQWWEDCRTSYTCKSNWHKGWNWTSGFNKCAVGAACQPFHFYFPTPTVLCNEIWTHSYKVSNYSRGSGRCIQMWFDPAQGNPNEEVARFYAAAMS
T3 sequence (P15328 25-233 limits assumed): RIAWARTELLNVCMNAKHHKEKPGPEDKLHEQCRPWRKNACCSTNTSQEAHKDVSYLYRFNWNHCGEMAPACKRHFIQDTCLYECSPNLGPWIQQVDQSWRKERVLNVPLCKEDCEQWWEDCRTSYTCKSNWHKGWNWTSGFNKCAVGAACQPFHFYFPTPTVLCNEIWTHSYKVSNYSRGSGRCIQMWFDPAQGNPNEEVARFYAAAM
T1 sequence (P41439 23-245 limits assumed): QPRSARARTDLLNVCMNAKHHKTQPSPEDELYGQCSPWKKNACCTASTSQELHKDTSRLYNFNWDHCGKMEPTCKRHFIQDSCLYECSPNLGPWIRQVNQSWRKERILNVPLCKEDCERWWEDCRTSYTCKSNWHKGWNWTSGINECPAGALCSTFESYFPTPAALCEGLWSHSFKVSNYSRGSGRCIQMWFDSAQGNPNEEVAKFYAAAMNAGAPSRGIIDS

B1: v23924 (antibody, human IgG1, kappa, V domains shown)
VH: QSVKESEGGLFKPTDTLTLTCTVSGFSLSSYGVSWVRQAPGNGLEWIGAVNSGGSAYYANWAKSRSTITRNTNLFTVTLKMTSLAVADTATYFCARSGSGYPMDYLAIWGPGTLVTVSS
VL: AYDMTQTPASVEVAVGGTVTIKCQASQSIGDWLAWYQQKPGQPPRLLIYEASTLASGVPSRFSGSGSGTQFTLTISGVECADAATYYCQQGYGRSNVDNIFGGGTEVVVKR
notes: Rabbit-human chimeric full-size antibody, human IgG1/kappa, HomoFc; also called variant v23924; parental chimeric anti-FRα antibody
Turning to B1, in assay [1], the binding result is “no binding (tested: 7 nM)”. Moreover, the Kd is 0.32 nM with human FRα on cells [2]; 0.08 nM with human FRα on cells [3]; 0.0839 nM with human FRα on cells [4]; 27 nM in assay [5]; 0.278 nM in assay [6]; 2.29 nM in assay [7]. In addition, in assay [8], the Kd came out at 20.6 nM.

These data come from US20240424125A1 (Zymeworks, published 2024).
